From patent US20240261333A1, “NOVEL TARGETS FOR ENHANCING ANTI-TUMOR IMMUNITY” (THE BROAD INSTITUTE, INC., priority 2021, published 2024)

How the values were obtained:
ARF4 (human) = ARF4 (human) (UniProt P18085); assay: co-IP with anti-FLAG, mass spectrometry; lysate of cells with N-FLAG B3GNT2
MSN (human) = MSN (human) (UniProt P26038); assay: as above
RPS27 (human) = RPS27 (human) (UniProt P42677); assay: as above
PIGR (human) = PIGR (human) (UniProt P01833); assay: as above
MYO1C (human) = MYO1C (human) (UniProt O00159); assay: as above
HSPD1 (human) = HSPD1 (human) (UniProt P10809); assay: as above
ARHGEF2 (human) = ARHGEF2 (human) (UniProt Q92974); assay: as above
SLC25A5 (human) = SLC25A5 (human) (UniProt P05141); assay: as above
DNAJB11 (human) = DNAJB11 (human) (UniProt Q9UBS4); assay: as above
UGGT1 (human) = UGGT1 (human) (UniProt Q9NYU2); assay: as above
ZC3HAV1 (human) = ZC3HAV1 (human) (UniProt Q7Z2W4); assay: as above
ILF3 (human) = ILF3 (human) (UniProt Q12906); assay: as above
EPRS (human) = EPRS (human) (UniProt P07814); assay: as above
PSMD4 (human) = PSMD4 (human) (UniProt P55036); assay: as above
EIF4A1 (human) = EIF4A1 (human) (UniProt P60842); assay: as above
MARS (human) = MARS (human) (UniProt P56192); assay: as above
SEL1L (human) = SEL1L (human) (UniProt Q9UBV2); assay: as above
SPRR1A (human) = SPRR1A (human) (UniProt P35321); assay: as above
CASC3 (human) = CASC3 (human) (UniProt O15234); assay: co-IP with mouse anti-FLAG from lysate of cells overexpressing N-FLAG B3GNT2, then mass spectrometry
IMMT (human) = IMMT (human) (UniProt Q16891); assay: control IP with IgG, lysate of cells with N-FLAG B3GNT2, mass spectrometry
CALML5 (human) = CALML5 (human) (UniProt Q9NZT1); assay: as above
GEMIN4 (human) = GEMIN4 (human) (UniProt P57678); assay: as above
S100A7 (human) = S100A7 (human) (UniProt P31151); assay: as above
LGALS7B (human) = LGALS7B (human) (UniProt P47929); assay: as above
SERPINB3 (human) = SERPINB3 (human) (UniProt P29508); assay: as above
SYNM (human) = SYNM (human) (UniProt O15061); assay: as above
EMILIN1 (human) = EMILIN1 (human) (UniProt Q9Y6C2); assay: as above
YTHDF2 (human) [1] = biological target: T1, YTHDF2 (human) (UniProt Q9Y5A9); assay: as above
T1 sequence (looked up): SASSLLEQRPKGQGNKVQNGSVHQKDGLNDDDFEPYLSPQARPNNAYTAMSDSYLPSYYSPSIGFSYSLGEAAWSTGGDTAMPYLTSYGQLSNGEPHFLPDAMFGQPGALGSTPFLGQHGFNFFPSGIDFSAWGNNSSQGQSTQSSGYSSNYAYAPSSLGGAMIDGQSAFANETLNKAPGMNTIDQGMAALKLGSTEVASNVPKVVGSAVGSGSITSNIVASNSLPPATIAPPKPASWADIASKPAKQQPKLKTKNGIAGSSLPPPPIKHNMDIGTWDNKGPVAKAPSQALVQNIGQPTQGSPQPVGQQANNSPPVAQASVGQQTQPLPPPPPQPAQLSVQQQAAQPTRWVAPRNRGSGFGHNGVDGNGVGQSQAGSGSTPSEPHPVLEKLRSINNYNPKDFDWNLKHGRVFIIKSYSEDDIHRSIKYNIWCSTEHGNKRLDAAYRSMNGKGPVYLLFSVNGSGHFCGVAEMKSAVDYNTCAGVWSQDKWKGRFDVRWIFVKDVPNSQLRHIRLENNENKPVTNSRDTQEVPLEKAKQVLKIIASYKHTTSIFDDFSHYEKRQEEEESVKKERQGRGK

PRRC2C (human) = PRRC2C (human) (UniProt Q9Y520); assay: co-IP with anti-FLAG, C-FLAG B3GNT2, mass spectrometry
TELO2 (human) = TELO2 (human) (UniProt Q9Y4R8); assay: as above
YTHDF2 (human) [2] = biological target: T1, YTHDF2 (human); assay: as above

EMILIN1 (human), sequence (Q9Y6C2 22-1016 limits assumed): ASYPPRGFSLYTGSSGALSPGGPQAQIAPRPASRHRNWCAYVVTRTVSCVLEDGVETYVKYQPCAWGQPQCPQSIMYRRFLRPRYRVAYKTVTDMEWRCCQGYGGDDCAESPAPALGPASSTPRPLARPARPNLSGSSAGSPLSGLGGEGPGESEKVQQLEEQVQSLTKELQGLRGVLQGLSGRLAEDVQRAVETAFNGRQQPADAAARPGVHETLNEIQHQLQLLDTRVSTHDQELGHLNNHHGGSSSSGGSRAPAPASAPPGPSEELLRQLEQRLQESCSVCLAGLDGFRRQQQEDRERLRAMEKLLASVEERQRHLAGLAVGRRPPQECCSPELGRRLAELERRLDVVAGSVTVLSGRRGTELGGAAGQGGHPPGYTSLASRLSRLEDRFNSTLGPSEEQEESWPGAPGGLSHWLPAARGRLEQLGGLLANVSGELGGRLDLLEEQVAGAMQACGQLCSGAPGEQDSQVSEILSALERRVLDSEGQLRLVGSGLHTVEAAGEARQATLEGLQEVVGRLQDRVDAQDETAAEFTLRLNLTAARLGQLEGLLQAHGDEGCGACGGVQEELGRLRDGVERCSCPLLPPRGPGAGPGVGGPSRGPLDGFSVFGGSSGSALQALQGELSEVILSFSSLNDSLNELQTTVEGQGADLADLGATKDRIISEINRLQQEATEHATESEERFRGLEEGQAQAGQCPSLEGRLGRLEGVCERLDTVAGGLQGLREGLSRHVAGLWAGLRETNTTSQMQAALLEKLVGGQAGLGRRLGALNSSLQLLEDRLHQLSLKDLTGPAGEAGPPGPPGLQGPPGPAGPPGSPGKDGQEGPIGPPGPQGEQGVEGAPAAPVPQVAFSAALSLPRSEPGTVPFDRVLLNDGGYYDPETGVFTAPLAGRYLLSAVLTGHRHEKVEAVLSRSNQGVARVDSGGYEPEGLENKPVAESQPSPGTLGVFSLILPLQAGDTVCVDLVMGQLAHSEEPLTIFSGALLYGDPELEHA
EPRS (human), sequence (P07814 whole entry): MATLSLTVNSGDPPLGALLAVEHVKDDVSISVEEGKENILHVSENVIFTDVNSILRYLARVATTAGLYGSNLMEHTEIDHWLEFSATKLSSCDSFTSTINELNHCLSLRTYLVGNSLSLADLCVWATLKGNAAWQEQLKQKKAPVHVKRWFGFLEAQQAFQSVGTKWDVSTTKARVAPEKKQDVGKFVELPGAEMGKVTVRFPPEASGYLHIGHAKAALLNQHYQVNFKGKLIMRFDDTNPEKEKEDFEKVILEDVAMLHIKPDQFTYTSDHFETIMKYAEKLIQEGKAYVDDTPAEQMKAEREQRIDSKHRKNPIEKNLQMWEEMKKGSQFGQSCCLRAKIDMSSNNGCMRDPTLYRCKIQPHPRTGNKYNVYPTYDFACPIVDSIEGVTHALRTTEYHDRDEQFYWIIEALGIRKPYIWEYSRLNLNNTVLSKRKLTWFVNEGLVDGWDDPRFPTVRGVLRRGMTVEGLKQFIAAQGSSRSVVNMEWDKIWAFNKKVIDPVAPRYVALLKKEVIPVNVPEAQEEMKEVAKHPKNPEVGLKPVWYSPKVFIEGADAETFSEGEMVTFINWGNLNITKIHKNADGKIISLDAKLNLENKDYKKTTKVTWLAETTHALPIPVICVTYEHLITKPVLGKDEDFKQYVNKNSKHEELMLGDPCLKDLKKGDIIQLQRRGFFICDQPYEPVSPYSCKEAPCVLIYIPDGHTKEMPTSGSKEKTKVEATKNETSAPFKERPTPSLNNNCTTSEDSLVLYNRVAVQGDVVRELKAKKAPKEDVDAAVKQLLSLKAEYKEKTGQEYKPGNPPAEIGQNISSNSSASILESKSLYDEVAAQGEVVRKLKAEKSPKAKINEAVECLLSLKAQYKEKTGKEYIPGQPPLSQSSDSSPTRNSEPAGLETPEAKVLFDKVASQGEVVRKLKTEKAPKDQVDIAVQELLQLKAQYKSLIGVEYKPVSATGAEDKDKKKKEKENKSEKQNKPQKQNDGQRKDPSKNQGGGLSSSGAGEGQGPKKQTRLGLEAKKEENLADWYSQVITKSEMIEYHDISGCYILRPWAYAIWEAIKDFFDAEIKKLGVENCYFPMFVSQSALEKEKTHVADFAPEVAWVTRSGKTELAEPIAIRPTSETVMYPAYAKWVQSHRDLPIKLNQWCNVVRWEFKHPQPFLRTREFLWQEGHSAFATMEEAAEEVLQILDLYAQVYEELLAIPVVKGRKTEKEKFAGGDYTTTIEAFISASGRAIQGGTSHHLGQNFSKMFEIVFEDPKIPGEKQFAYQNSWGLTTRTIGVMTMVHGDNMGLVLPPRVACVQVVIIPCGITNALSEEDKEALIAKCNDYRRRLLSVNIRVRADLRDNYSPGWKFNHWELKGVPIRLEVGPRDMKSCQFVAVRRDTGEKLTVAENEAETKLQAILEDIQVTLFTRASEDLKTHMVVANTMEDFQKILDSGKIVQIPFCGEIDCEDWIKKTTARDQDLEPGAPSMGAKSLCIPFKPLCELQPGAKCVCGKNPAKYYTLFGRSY
EIF4A1 (human), sequence (P60842 2-406 limits assumed): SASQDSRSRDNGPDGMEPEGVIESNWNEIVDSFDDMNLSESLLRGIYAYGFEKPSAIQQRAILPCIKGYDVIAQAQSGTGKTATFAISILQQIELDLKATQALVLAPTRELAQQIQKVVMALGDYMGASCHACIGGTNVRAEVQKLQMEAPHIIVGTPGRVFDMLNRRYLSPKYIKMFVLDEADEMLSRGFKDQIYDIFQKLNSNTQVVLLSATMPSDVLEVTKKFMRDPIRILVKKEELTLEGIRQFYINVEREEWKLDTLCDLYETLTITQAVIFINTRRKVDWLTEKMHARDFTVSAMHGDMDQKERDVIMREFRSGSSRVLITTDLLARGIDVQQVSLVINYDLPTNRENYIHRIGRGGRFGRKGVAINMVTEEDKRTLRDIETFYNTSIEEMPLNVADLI
IMMT (human), sequence (Q16891 other isoform, or with tags, fused parts or gaps limits assumed): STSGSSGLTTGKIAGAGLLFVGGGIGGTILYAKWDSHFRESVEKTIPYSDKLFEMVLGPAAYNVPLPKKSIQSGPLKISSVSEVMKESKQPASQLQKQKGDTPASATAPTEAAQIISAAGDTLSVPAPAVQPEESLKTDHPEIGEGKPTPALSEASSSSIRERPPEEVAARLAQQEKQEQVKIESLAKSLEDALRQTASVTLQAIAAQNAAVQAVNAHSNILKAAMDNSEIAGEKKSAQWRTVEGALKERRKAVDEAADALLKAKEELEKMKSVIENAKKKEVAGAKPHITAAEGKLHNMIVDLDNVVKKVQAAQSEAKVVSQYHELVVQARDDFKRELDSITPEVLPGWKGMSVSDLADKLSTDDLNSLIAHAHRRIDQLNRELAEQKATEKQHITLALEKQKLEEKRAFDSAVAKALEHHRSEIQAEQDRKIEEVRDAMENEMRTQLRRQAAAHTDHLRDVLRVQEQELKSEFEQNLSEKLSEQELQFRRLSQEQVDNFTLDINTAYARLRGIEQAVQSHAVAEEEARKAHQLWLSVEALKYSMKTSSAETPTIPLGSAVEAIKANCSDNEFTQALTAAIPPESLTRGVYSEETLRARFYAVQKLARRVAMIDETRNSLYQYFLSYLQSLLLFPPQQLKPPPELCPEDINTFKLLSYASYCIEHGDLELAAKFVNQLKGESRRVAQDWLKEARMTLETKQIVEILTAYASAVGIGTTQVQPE
SLC25A5 (human), sequence (P05141 2-298 limits assumed): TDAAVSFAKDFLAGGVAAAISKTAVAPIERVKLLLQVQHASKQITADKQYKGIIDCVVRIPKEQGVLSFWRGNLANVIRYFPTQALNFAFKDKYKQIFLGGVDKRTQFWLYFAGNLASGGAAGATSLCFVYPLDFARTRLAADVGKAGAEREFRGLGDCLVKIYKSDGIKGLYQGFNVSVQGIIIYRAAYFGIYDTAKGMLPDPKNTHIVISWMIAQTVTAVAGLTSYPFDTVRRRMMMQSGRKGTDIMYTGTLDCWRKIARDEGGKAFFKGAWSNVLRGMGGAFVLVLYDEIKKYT
PSMD4 (human), sequence (P55036 whole entry): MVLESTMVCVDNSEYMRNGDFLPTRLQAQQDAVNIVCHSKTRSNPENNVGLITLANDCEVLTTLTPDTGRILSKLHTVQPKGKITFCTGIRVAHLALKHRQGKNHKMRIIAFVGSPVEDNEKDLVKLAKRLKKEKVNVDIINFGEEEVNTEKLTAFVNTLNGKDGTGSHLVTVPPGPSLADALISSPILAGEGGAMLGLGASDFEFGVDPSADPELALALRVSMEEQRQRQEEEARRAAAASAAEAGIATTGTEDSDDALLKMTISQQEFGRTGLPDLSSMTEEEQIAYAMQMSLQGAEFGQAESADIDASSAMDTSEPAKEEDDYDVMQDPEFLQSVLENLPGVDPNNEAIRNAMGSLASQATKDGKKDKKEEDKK
PIGR (human), sequence (P01833 19-764 limits assumed): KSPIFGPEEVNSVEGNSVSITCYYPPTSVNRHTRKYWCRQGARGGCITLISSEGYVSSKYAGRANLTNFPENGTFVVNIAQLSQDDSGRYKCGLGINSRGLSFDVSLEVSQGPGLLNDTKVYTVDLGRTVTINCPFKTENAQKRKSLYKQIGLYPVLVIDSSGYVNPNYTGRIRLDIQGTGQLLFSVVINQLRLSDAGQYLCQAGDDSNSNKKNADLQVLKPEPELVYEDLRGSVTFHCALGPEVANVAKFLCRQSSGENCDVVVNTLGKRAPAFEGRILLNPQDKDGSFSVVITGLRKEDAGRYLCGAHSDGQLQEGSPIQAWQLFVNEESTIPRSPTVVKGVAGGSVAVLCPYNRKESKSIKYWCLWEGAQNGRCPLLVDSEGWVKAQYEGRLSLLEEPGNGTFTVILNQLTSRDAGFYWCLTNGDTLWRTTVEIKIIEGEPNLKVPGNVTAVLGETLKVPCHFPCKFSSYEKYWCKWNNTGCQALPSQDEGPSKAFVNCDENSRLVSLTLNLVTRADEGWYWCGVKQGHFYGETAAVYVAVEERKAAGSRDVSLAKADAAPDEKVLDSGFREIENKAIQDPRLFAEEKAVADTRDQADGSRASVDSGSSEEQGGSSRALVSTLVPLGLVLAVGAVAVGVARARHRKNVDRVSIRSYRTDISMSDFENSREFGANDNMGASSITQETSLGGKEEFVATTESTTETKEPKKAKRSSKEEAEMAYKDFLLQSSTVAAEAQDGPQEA

Substance: N-terminal FLAG tagged B3GNT2 (from UniProt Q9NY97 1-397) (enzyme)
- co-IP mass spectrometry count (ARF4 (human)): 4
- co-IP mass spectrometry count (MSN (human)): 3
- co-IP mass spectrometry count (RPS27 (human)): 2
- co-IP mass spectrometry count (PIGR (human)): 2
- co-IP mass spectrometry count (MYO1C (human)): 4
- co-IP mass spectrometry count (HSPD1 (human)): 10
- co-IP mass spectrometry count (ARHGEF2 (human)): 0
- co-IP mass spectrometry count (SLC25A5 (human)): 19
- co-IP mass spectrometry count (DNAJB11 (human)): 3
- co-IP mass spectrometry count (UGGT1 (human)): 2
- co-IP mass spectrometry count (ZC3HAV1 (human)): 3
- co-IP mass spectrometry count (ILF3 (human)): 2
- co-IP mass spectrometry count (EPRS (human)): 3
- co-IP mass spectrometry count (PSMD4 (human)): 2
- co-IP mass spectrometry count (EIF4A1 (human)): 2
- co-IP mass spectrometry count (MARS (human)): 2
- co-IP mass spectrometry count (SEL1L (human)): 3
- co-IP mass spectrometry count (SPRR1A (human)): 4
- co-IP mass spectrometry count (N-term FLAG) (CASC3 (human)): 3

Substance: IgG control (Millipore Sigma 12-371) (antibody)
- co-IP mass spectrometry count (IMMT (human)): 17
- co-IP mass spectrometry count (CALML5 (human)): 0
- co-IP mass spectrometry count (GEMIN4 (human)): 0
- co-IP mass spectrometry count (S100A7 (human)): 2
- co-IP mass spectrometry count (LGALS7B (human)): 4
- co-IP mass spectrometry count (SERPINB3 (human)): 3
- co-IP mass spectrometry count (SYNM (human)): 5
- co-IP mass spectrometry count (EMILIN1 (human)): 0
- co-IP mass spectrometry count (YTHDF2 (human) [1]): 4

Substance: C-terminal FLAG tagged B3GNT2 (from UniProt Q9NY97 1-397) (enzyme)
- co-IP/MS count, C-term flag (PRRC2C (human)): 15
- co-IP mass spectrometry count (TELO2 (human)): 3
- co-IP mass spectrometry count (YTHDF2 (human) [2]): 4
